Source: US20160052996A1 (NEURIMMUNE, published 2016)

Legend:
JCV VP1 VLP [1] = biological target: T1, JCV VP1 VLP (JC virus (JCV), Mad-1 strain, UniProt P03089 1-354); test: direct ELISA, plate coated with antigen at 5 µg/ml in reassociation buffer (VLP); EC50 by non-linear regression (GraphPad Prism)
T1 construct: also called JCV VP1 VLPs; JCV VP1 (coating with reassociation buffer)

[2] = biological target: JCV (JC virus produced by infected SVG-A cells) (JC virus (JCV), UniProt P03089 1-354); test: cell-based or functional assay
[3] = biological target: T2, JCV VP3 protein (Bioclone Inc) (JC virus (JCV), UniProt P03095 120-344); test: direct ELISA, antigens coated at 1 µg/mL; bar groups labelled 100 nM, 20 nM, 4 nM, 0.8 nM
T2 sequence: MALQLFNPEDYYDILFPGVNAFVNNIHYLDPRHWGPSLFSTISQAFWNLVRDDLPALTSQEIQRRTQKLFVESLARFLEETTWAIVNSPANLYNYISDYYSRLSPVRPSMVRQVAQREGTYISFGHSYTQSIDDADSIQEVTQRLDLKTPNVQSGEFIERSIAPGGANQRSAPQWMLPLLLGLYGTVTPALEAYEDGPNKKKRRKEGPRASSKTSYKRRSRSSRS

[4] = biological target: T3, JCV VP2 protein (Bioclone Inc) (JC virus (JCV), UniProt P03095 1-344); test: as above
T3 sequence (looked up): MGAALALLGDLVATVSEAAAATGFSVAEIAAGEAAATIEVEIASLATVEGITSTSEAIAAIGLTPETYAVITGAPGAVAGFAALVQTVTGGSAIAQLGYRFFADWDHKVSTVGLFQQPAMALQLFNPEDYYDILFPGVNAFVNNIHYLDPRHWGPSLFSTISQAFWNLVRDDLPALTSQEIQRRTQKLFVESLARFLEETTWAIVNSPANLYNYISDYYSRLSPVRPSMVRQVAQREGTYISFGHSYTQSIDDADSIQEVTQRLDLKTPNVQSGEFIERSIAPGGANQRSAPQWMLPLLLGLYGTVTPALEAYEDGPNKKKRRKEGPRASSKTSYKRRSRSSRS

JCV VP1 VLP [5] = biological target: T1, JCV VP1 VLP; test: direct ELISA
BSA (Sigma-Aldrich) = biological target: T4, BSA (Sigma-Aldrich) (bovine, UniProt P02769 25-607); test: direct ELISA
T4 construct: also called bovine serum albumin
T4 sequence (P02769 25-607 limits assumed): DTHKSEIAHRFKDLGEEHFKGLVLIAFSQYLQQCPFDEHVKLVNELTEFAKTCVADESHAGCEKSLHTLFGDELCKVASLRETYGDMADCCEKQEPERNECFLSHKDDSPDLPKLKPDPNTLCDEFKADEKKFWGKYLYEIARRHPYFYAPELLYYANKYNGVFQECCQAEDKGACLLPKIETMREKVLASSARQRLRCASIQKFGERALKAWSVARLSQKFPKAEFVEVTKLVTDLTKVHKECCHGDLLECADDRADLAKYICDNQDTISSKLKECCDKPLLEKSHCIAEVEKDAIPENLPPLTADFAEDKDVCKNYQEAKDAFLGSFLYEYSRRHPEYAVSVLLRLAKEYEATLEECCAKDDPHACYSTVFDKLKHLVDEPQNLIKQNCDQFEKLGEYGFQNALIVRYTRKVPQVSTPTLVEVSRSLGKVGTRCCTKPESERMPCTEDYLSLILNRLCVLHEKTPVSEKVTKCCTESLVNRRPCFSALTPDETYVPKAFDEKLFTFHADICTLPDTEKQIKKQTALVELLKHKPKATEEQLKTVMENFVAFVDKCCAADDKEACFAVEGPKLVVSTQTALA

JCV VP1 VLP [6] = biological target: T1, JCV VP1 VLP; test: direct ELISA, plate coated with antigen at 5 µg/ml in reassociation buffer (VLP); EC50 by non-linear regression (GraphPad Prism); remark: listed apart in the source
[7] = biological target: T5, VP1 GCN (N74S R75K T128A L158V K345R Q350deletion T351deletion) (JC virus (JCV), UniProt P03089 1-354); test: flow cytometry, transfected 293TT cells
T5 construct: whole, on cells

B1: NI-307.98D3 (antibody, V domains shown)
VH: EVQLVESGGGVVQPGRSLRLSCAASGFTFSSSAMHWVRQAPGKGLEWVAVISYDGNNQLYADSVKGRLTISRDNSKNALYLQLNSLRTEDTAVYFCARDGGGYSFGTYFFDFWGQGTLVTVSS
VL: DIQMTQSPSSLSASVGERVTITCRASQRISNYLNWYQQKPGKAPKLLIYAASTLQSGVPSRFSGSGSGTDFTLTISSLQPEDFATYYCQQSYSSPPTFGPGTKVDIK
B1 was tested, and the EC50 (JCV VP1 VLP [1]) was 0.00057 nM and the “IC50 of neutralization of the JCV infection of SVG-A cells” value [2] was 0.8 ng/mL.

B2: NI-307.26E10 (antibody, V domains shown)
VH: EVQLVESGGGLVLPGGSLRLSCAVSGFTVRNEYMRWARQAPGRGLEWVSVIYRDGQTHHADTVKGRFDVSKDTSKNTMYLQMHNLRVDDTAIYYCARGHYGPWGQGTLVTVSS
VL: DIQMTQSPSTLPASVGDRVTITCRASQSINNWLAWYQQKPGKAPNLLIYDASNLETGVPSRFSGSGSGTEFTLTISSLQPDDFATYYCQQYNSHSHTWTFGQGTKVEIK
B2 was tested, and the binding result [3] was “no binding (tested: 100 nM)”, the binding result [4] was “no binding (tested: 100 nM)” and the EC50 (JCV VP1 VLP [5]) was 14.9 nM. B2: no binding (BSA (Sigma-Aldrich)).

B3: NI-307.61D11 (antibody, V domains shown)
VH: EVQLVQSGAEVKKPGASVKVSCKTSGYTFIGHYMQWVRQVPGQGFEWMGWINPNTGTTKYALKFKDRVTVTRDTSTATVYMEFHGLTSDDTAVYYCARASAYQLANYDYWGQGTLVTVSS
VL: QSALTQPASVSGSPGQSITISCAGTSNDVGDDDFVSWYQHQPGKAPRLMIYEVTNRPSGVSTRFSGSKSGNTASLTISGLQAEDEGDYYCMSYTKNSALGYVFGGGTKVTVL
In the case of B3, the EC50 (JCV VP1 VLP [6]) is reported as 17.7 nM and the binding result (BSA (Sigma-Aldrich)) is reported as “no binding”.

B4: NI-307.19F8 (antibody, V domains shown)
VH: EVQLVESGGGLVKPGGSLRLSCAASGFTFSSYYMNWVRQAPGKGLEWVSSISSSSSYIYYADSVKGRFTISRDNAKNSLYLQMNSLTAEDTAVYYCARDPRLQLWFMFDYWGQGTLVTVSS
VL: QPVLTQPPSASASLGASVTLTCTLSSGYSNYKVDWYQQRPGEGPRFVMRVGTGGIVGSKGDGIPDRFSVLGSGLNRYLTIKDIQEEDESDYHCGADHGSGSNFVYVFGTGTKVTVL
For B4, the EC50 (JCV VP1 VLP [6]) was 6.68 nM, the binding result [3] was “no binding (tested: 100 nM)” and the binding result [4] was “no binding (tested: 100 nM)”. B4: no binding (BSA (Sigma-Aldrich)).

B5: NI-307.58C7 (antibody, V domains shown)
VH: EVQLVESGGGLVKPGGSLRLSCAASGFTFSDYYVNWIRQAPGKGLEWVACISSSGRTIHYADSVKGRFTISRDNAKNSLYLQMNSLRAEDTAFYYCARDLDKAATGRPYFDYWGQGTLVTVSS
VL: not shown
B5: binds [7].

B6: NI-307.25G10 (antibody, V domains shown)
VH: EVQLVESGGGLVQPGGSLRLSCVASGIIFKDYDFHWVRQVKEKGLEWVSAIGTAGDPYYAASVKGRFTVSRENGKNSVYLRMNNVGAGDTALYYCTSGNYFDRGSFRPSAFDMWGQGTMVTVSS
VL: EIVLTQSPGTLSLSPGERATLSCWASQSVSSNYLAWYQHKPGQAPRLLIFRASRRATDIPERFSAGGSGTDFTLTISRLEAEDSAVYYCQEYGSAPPASITFGQGTRLEIK
In the case of B6, the binding result [3] is reported as “no binding (tested: 100 nM)”, the binding result [4] is reported as “no binding (tested: 100 nM)” and the EC50 (JCV VP1 VLP [5]) is reported as 0.509 nM. B6: no binding (BSA (Sigma-Aldrich)).
